In patent publication JP2023110925A (dated 2023):

Target: T1, アミロイドβ (antigen of the amyloid β ELISA) (UniProt P05067 672-713)
T1 construct: also called Aβ
Test: amyloid β ELISA, conditioned medium of transient transfection

T1 sequence (P05067 672-713): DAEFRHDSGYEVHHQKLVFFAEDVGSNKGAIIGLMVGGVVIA

binding result: no binding
B1: C2 HuVH AF バージョン3 + キメラC2カッパ鎖 (transient) (antibody, name in Kabat numbering, V domains shown)
VH: EVQLVESGGGLVQPGGSLRLSCAASGFTFSSYGMSWVRQAPGKGLELVASINSNGGSTYYPDSVKGRFTISRDNAKNSLYLQMNSLRAEDTAVYYCARGDYWGQGTTVTVSS
VL: DVVMTQTPLSLPVSLGDQASISCRSSQSLVYSNGDTYLHWYLQKPGQSPKLLIYKVSNRFSGVPDRFSGSGSGTDFTLKISRVEAEDLGVYFCSQSTHVPWTFGGGTKLEIK
notes: Transient expression
